Reference: the FLAb antibody collection (doi:10.1101/2023.12.08.570889)
Numbering of substitutions follows the chain as printed.

B1: unnamed (protein)
chain 1: QMQLVESGGGVVQPGRSLRLSCAASGFTFSTYAMHWVRQAPGKGLEWVAVIWYDGSNKHYADSVKGRFTITRDNSKNTLNLQMNSLRAEDTAVYYCARAPRYDDLYEAFDVWGQGTMVTVSS
chain 2: SYVLTQPPSVSVAPGQTARITCGGNNLGSKSVHWYQQKPGQAPVLVVYDDSDRPSWIPERFSGSNSGNTATLTISRGEAGDEADYYCQVWDSSSDHVVFGGGTKLTVL
B2: unnamed (protein)
chain 1: B1 chain 1 with D104E, L105D
chain 2: B1 chain 2
B3: unnamed (protein)
chain 1: B1 chain 1 with Y32F, D104E, L105E
chain 2: B1 chain 2
B4: unnamed (protein)
chain 1: B1 chain 1 with Y32F, L105E
chain 2: B1 chain 2
B5: unnamed (protein)
chain 1: B1 chain 1 with Y32F, L105Y, Y106L
chain 2: B1 chain 2
B6: unnamed (protein)
chain 1: B1 chain 1 with Y32F, A99S, L105Y
chain 2: B1 chain 2
B7: unnamed (protein)
chain 1: B1 chain 1 with Y32F, D104E, L105D
chain 2: B1 chain 2
B8: unnamed (protein)
chain 1: B1 chain 1 with L105Y, Y106L
chain 2: B1 chain 2
B9: unnamed (protein)
chain 1: B1 chain 1 with T31S, L105Y
chain 2: B1 chain 2
B10: unnamed (protein)
chain 1: B1 chain 1 with D104Y, L105Y, Y106W
chain 2: B1 chain 2
B11: unnamed (protein)
chain 1: B1 chain 1 with T31S, Y32F, L105Y
chain 2: B1 chain 2
B12: unnamed (protein)
chain 1: B1 chain 1 with Y32F, D104E, L105Y, Y106V
chain 2: B1 chain 2
B13: unnamed (protein)
chain 1: B1 chain 1 with Y32F, A99S, D104E, L105Y, Y106W
chain 2: B1 chain 2
B14: unnamed (protein)
chain 1: B1 chain 1 with Y32F, A99S, D104W, L105Y
chain 2: B1 chain 2
B15: unnamed (protein)
chain 1: B1 chain 1 with A99S, D104W, L105Y
chain 2: B1 chain 2
B16: unnamed (protein)
chain 1: B1 chain 1 with D103Y, D104Y, L105Y
chain 2: B1 chain 2
B17: unnamed (protein)
chain 1: B1 chain 1 with Y32F, D103Y, D104E, L105Y, Y106W
chain 2: B1 chain 2
B18: unnamed (protein)
chain 1: B1 chain 1 with Y32F, A99S, D104E, L105Y, Y106L
chain 2: B1 chain 2
B19: unnamed (protein)
chain 1: B1 chain 1 with L105A
chain 2: B1 chain 2

Target: TSLP, Q969D9
Experiment: Kd (SPR)

| Binder | Kd |
| --- | --- |
| B1 | 188 nM |
| B2 | 184 nM |
| B3 | 240 nM |
| B4 | 180 nM |
| B5 | 159 nM |
| B6 | 172 nM |
| B7 | 148 nM |
| B8 | 152 nM |
| B9 | 153 nM |
| B10 | 151 nM |
| B11 | 136 nM |
| B12 | 129 nM |
| B13 | 31.6 nM |
| B14 | 126 nM |
| B15 | 96.3 nM |
| B16 | 152 nM |
| B17 | 190 nM |
| B18 | 117 nM |
| B19 | 370 nM |
